Experimental data from the supplement of paper PMC9170038.

Tested on: MS2 coat protein
Test: apparent KD of MS2 coat protein; designed switch direction (-1 OFF switch, 1 ON switch): -1; higher = weaker reporter binding
Outline: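 Normalised cluster fluorescence was curve-fitted, and each design's median over clusters is its apparent KD. Before this, SNAP-549-labelled MS2 coat protein was titrated from 0.7 or 1.5 nM, doubling to 3 µM, over RNA switches transcribed on Illumina chips by stalled E. coli RNA polymerase. Titrations had no input, 200 uM small-molecule ligand, or an oligonucleotide input, and steps lasted 0.8–1.5 h (lowest) to 10–20 min (highest).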

[1] = Eterna round: R95, input ligand: FMN 200 uM
[2] = Eterna round: R95, input ligand: microRNA oligo, concentration not stated
[3] = Eterna round: R95, input ligand: none
[4] = input ligand: microRNA oligo, concentration not stated

Sequence | apparent KD of MS2 coat protein (input ligand: FMN 200 uM) [µM] | apparent KD of MS2 coat protein (input ligand: none) [µM] | apparent KD of MS2 coat protein [1] [µM] | apparent KD of MS2 coat protein [2] [µM] | apparent KD of MS2 coat protein [3] [µM] | apparent KD of MS2 coat protein [4] [µM]
CAGUACUGAGGAUAUACAUGAGGAUCACCCAUGUGUUCCAGCUAGGAUACUAGCAAUGGAAGAAGGCAGUACUG [Mat - Exclusion 3 - Eli Mod - D1] (Eterna round: R97, puzzle: Exclusion 3) | 0.0172 | 0.0168 |  |  |  | 
UCCGUACAUGAGGAUCACCCAUGUCAGGAUAUGGCUUUUAGCGUAGACGCGCAAGAGGCCAGAAGGGACUUUUG [Eternabot (L2) Solution 6] (Eterna round: R97, puzzle: Exclusion 1) | 0.0305 | 0.0277 |  |  |  | 
AUAGAUCGUUAGGAUAUCCAGAUGACCCUCGUUGGAGAAGGAACGACAUGAGGAUCACCCAUGUUAUAGUACUU [Eternabot (L2) Solution 66] (Eterna round: R97, puzzle: Exclusion 6) | 0.0169 | 0.0185 |  |  |  | 
AAUAACAAGUGAGAUCCUAACAUGAGGAUCACCCAUGUGCUCGUCUUAUAAAGUACUAUCACGAAAGUGAUAGUACA [Sensor 3, v1 - 54] (puzzle: Sensor v3, turn-off variant 1) |  |  | 0.117 | 0.00729 | 0.0706 | 
ACUAGAUGAGGAUAUGCAUGUUUUCAUGUUCUUCUAGAUUAACAUGAGGAUCACCCAUGUAGAAGGCGUCUUUA [Exclusion 2 - 32] (puzzle: Exclusion 2) |  |  |  | 0.0189 |  | 
AUUAUAUAGACAGGAUAUUGAUUAUUAUUUUAACAUGAGGAUCACCCAUGUAGCCUUAUGUAUAACAAGAAGGGUCAUUUAUUA [Title] (Eterna round: R96, puzzle: Exclusion NG 2) |  |  |  |  |  | 0.124
CUCGUGUAAGGAUAUGCGAGCCACGGAAAUAAAACGUGGAGGUAGAAGGUACAUGAGGAUCACCCAUGUAAAAC [Anonveat] (puzzle: Exclusion 4) |  |  |  | 0.0243 |  | 
GUCCUACAUGAGGAUCACCCAUGUGAGGAUAUGCGAUUAGCUGCUAGGUAGUUAGUAUGUAGAAGGCGCGUGAA [EX1 #78] (Eterna round: R97, puzzle: Exclusion 1) | 0.0156 | 0.0144 |  |  |  | 
GCCACGGGAGGAUAUACAUAGGAGUUCUCUUCCUGCUCGAGACAUGAGGAUCACCCAUGUAGAAGGCCCGCUGC [Eternabot (L2) Solution 17] (Eterna round: R97, puzzle: Exclusion 2) | 0.0622 | 0.385 |  |  |  | 
AAUGAUGAUGUGAGGAUAUACAUAGUUAGACCGUAGUAGAAGGCACAUGAGGAUCACCCAUGUAGAUGUAAGGU [JR_BME4_Sub002] (puzzle: Brourd's mod of Exclusion 4) |  |  | 0.0263 | 0.017 | 0.0177 | 
GACACGGAUGUCAGGAUAUGCAAAUGGCAUCGUUCGCAGAAGGGACAUGAGGAUCACCCAUGUAAAAGUGGACC [Onsorelama] (Eterna round: R97, puzzle: Brourd's mod of Exclusion 4) | 0.109 | 0.114 |  |  |  | 
UGUGUGAGACAGGAUAUGCUGGAUGUGAGGCGGGUAGAAGGGUCUACAUGAGGAUCACCCAUGUGGCCGGUUGG [Ex6 #70] (Eterna round: R97, puzzle: Exclusion 6) | 0.0194 | 0.0173 |  |  |  | 
GAUCGGACGUGGUCAGGUAACAUGAGGAUCACCCAUGUAGGUCUAGGAACAAGCUUUUUGAAAGCUCGUCUUAUAUA [JR_SV3TOV1_Sub057] (puzzle: Sensor v3, turn-off variant 1) |  |  | 0.0448 | 0.0255 | 0.0493 | 
AGAUCUGCAGGAUAUGGUUUUCGUGACAUGAGGAUCACCCAUGUCUUAUGUCCGCAUGUUUCAGAAGGGCAGGACG [Eternabot (L1) Solution 71] (Eterna round: R97, puzzle: Exclusion 5) | 0.0743 | 0.0278 |  |  |  | 
AACCUGAGGCUUUGCUUUAGGUGAACAUGAGGAUCACCCAUGUAGGAUAUGGUAGGCUUUGCUUACCAGAAGGACAUAUUAAUU [JL ENG3 1.12] (Eterna round: R96, puzzle: Exclusion NG 3) |  |  |  |  |  | 0.0306
AUUUUAUAUGAAGGAUAUACUUAACAUGAGGAUCACCCAUGUGGUGUUGUGAGUGAGUGAGUUUAGUAGAAGGUCAAUUCUUUU [JMF's solution 98] (Eterna round: R96, puzzle: Exclusion NG 2) | 0.24 | 0.288 |  |  |  | 0.185
AUCAUGUAAGGAUAUGAAAGUAAACGCGUGAAGACCACGCAUCAGAAGGUACAUGAGGAUCACCCAUGUGUCCG [Soesatle] (Eterna round: R97, puzzle: Exclusion 4) | 0.0606 | 0.0198 |  |  |  | 

Sequence | apparent KD of MS2 coat protein (input ligand: FMN 200 uM) [µM] | apparent KD of MS2 coat protein (input ligand: none) [µM] | apparent KD of MS2 coat protein [1] [µM] | apparent KD of MS2 coat protein [2] [µM] | apparent KD of MS2 coat protein [3] [µM] | apparent KD of MS2 coat protein [4] [µM]
CCGCAAAAGGAGGAUAUCGUAUCGGAUACGAUACGAGAAGGCUUUACAUGAGGAUCACCCAUGUGUCCUAGCGG [Fiskers Ex 6 - 47] (puzzle: Exclusion 6) |  |  |  | 0.0134 |  | 
CUCCGGCGUGUAGGAUAUGGAUCCGAUUAGGAUCCAGAAGGACAUGAGGAUCACCCAUGUACAUGUCGUCGGUCGUCACCGGGC [salish99_ExNG1_r04_210] (Eterna round: R96, puzzle: Exclusion NG 1) | 0.0527 | 0.0322 |  |  |  | 0.0222
CCUCAGUAAGGAUAUCAGCUUAGUAGGUUGGUAAUGAGAGCUGAGAAGGUACAUGAGGAUCACCCAUGUUAGUU [JL Zatite mod 10] (puzzle: Exclusion 4) |  |  |  | 0.0288 |  | 
AAACGGCAAUAAGGAUAUGCUUACCUGGGUCGUCUUCAAACAUGAGGAUCACCCAUGUAGUCGACGCAGAAGGUAUUCAAAGCC [ExNG2 first] (Eterna round: R96, puzzle: Exclusion NG 2) | 0.0135 | 0.0128 |  |  |  | 0.0104
AGCAAAUCAGGAUAUGUACUGGACGACAUGAGGAUCACCCAUGUGAUUCAGUGCGCGAGAACAGAAGGGAUUCGCU [Isor] (puzzle: Exclusion 5) |  |  |  | 0.0154 |  | 
CUGCUCCGUGUAGGAUAUGCAUACUCCCAUUAUGCAGAAGGACAUGAGGAUCACCCAUGUAUGUUAUUAUCACGUGUUGCGUAC [Design 14] (Eterna round: R96, puzzle: Exclusion NG 1) |  |  |  |  |  | 0.02
GCAGCAUAGUUAACAGACUGUUACAUGAGGAUCACCCAUGUACAGGAUAUGGUCUGGAUUACAGGCCAGAAGGGUACAAGCUGC [Eli exng3 - 019] (Eterna round: R96, puzzle: Exclusion NG 3) | 0.0101 | 0.0116 |  |  |  | 0.00894
CUUUUGUGAGGAUAUCAGUAGUAAAUAAAUAAAAUAACUACUGAGAAGGCACAUGAGGAUCACCCAUGUUCCUC [Mat - Exclusion 4 - Mod of Salish - D69] (puzzle: Exclusion 4) |  |  |  | 0.0386 |  | 
CAUUCAGAUGUCAGGAUAUCUGCGGGUAGGGCCGAAGAGAAGGGACAUGAGGAUCACCCAUGUACACUGCUAGA [BmEX4 B.28] (Eterna round: R97, puzzle: Brourd's mod of Exclusion 4) | 0.0229 | 0.016 |  |  |  | 
UCGGCGCGAGGAUAUACGUUUGCUUUUUUGGGUCGUUGCGUACAUGAGGAUCACCCAUGUAGAAGGCGCGCCGC [Apr-15 SS2-25] (Eterna round: R96, puzzle: Exclusion 2) | 0.145 | 0.0318 |  |  |  | 0.0259
UUUUUCAGGCCAGAUCCUCACAUGAGGAUCACCCAUGUGCUCGUCUGUUUUCGCACUAUCACGUUUGUGAUAGUGCU [Level Boss var2-12] (puzzle: Sensor v3, turn-off variant 1) |  |  | 0.207 | 0.0335 | 0.216 | 
ACAUGAGGAUCACCCAUGUAGACAGCUGCAACCGGUGAAAGACAGGAUAUGUGACGGCACAGGGAACAGAAGGGUCAAAGAAAA [Ceatasoes] (Eterna round: R96, puzzle: Exclusion NG 3) | 0.0212 | 0.0309 |  |  |  | 0.022
UUAAUUAAUUAACGCAGCAAGAUCACAUGAGGAUCACCCAUGUAGGAUAUCAGCUCGUGUAGAGCUGAGAAGGACAUAGCUGCG [ExNG3/1-A3] (Eterna round: R96, puzzle: Exclusion NG 3) | 0.0808 | 0.0168 |  |  |  | 0.0173
AAUAAUAAAGUCAGGAUAUCUAGAGCUUCGGCUCUAGAGAAGGGACAUGAGGAUCACCCAUGUCACUCAAUAAU [BmEx4/3-D1] (Eterna round: R97, puzzle: Brourd's mod of Exclusion 4) | 0.0216 | 0.0151 |  |  |  | 
CUGAGGUAGCGGUCCUAUGACAUGAGGAUCACCCAUGUACCUUGCUUUGAGCUUUAUGCUCGUCUUAUGAUUCUCGG [Mat - Sensor v3 - turn-off var 1 - JL Mod - D42] (puzzle: Sensor v3, turn-off variant 1) |  |  | 0.585 | 0.537 | 0.546 | 
AAAAUAAAAAUAAACAAGCACAUGAGGAUCACCCAUGUUCGUCUUAUAAAAAUAAAAAUAAAAAACAAAAAAUAAAA [Sensor V2: 48] (Eterna round: R96, puzzle: Sensor v2, turn-off variant) | 0.019 | 0.0206 |  |  |  | 0.0296
GCCGAUUAAGUCAGGAUAUACCUAUGGAUACAUAGGUAGAAGGGACAUGAGGAUCACCCAUGUUCCUCAUCGGC [Fiskers BMX 4 - 12] (puzzle: Brourd's mod of Exclusion 4) |  |  | 0.0416 | 0.0135 | 0.0169 | 
